Data on 94 variants can be found in the supplement of paper PMC10567573.

The labels stand for the following.
B1: CDC14A (parent)
chain: LNLAMVYRYCCKLNKKLKSYSLSR
B2: TRIM63 (parent)
chain: FRCPTCRHEVIMDRHGVYGLQRNL
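Also: lentivirally expressed fusions sorted by FACS into six bins by GFP to DsRed ratio, PSI derived from sequencing read proportions per bin multiplied by bin number.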

The first data set covers variants of B1. Briefly: protein stability index of a GFP-peptide fusion (GPS, HEK-293T) (PSI 1-6); higher = more stable. To be noted: c terminus: a fixed tail appended.
Regarding LNLAMVYRYCCKLNKKLKSASLSR [Y20A], the protein stability index was 2.61.

For the variant LNLAMVYRYCCKLNKKLKSTSLSR [Y20T], the protein stability index was found to be 2.42.

On to LNLAMVYRYCCKLNKKLKSCSLSR [Y20C], for which the protein stability index was determined as 3.44.

With LNLAMVYRYCCKLNKKLKSSSLSR [Y20S], the protein stability index is 2.63.

On to LNLAMVYRYCCKLNKKLISYSLSR [K18I], for which the protein stability index was 2.79.

As to LNLAMVYRYCCKLNKKLCSYSLSR [K18C], the protein stability index was found to be 1.73.

On to LNLAMVYRYCCKLNKKLGSYSLSR [K18G], for which the protein stability index was 3.2.

With LNLAMVYRYCCKLNKKLASYSLSR [K18A], the protein stability index came to 2.11.

Consider LNLAMVYRYCCKLNKKLMSYSLSR [K18M], for which the protein stability index amounted to 3.72.

For LNLAMVYRYCCKLNKKLTSYSLSR [K18T], the protein stability index amounted to 3.6.

Turning to LNLAMVYRYCCKLNKKLLSYSLSR [K18L], the protein stability index was found to be 1.71.

As for LNLAMVYRYCCKLNKKLDSYSLSR [K18D], the protein stability index is 2.42.

For the variant LNLAMVYRYCCKLNKKLESYSLSR [K18E], the protein stability index amounted to 3.12.

Regarding LNLAMVYRYCCKLNKKLVSYSLSR [K18V], the protein stability index stood at 2.46.

As to LNLAMVYRYCCKLNKKLYSYSLSR [K18Y], the protein stability index came out at 2.67.

In the case of LNLAMVYRYCCKLNKKLHSYSLSR [K18H], the protein stability index is 2.96.

Take LNLAMVYRYCCKLNKKLPSYSLSR [K18P]: the protein stability index was found to be 2.5.

LNLAMVYRYCCKLNKKLNSYSLSR [K18N]: the protein stability index stood at 2.77.

Take LNLAMVYRYCCKLNKKLQSYSLSR [K18Q]: the protein stability index was determined as 1.97.

For LNLAMVYRYCCKLNKKLSSYSLSR [K18S], the protein stability index is 2.9.

Turning to LNLAMVYRYCCKVNKKLKSYSLSR [L13V], the protein stability index is 4.56.

LNLAMVYRYCCKYNKKLKSYSLSR [L13Y]: the protein stability index was found to be 2.32.

For the variant LNLAMVYRYCCKWNKKLKSYSLSR [L13W], the protein stability index came to 1.96.

For the variant LNLAMVYRYCCKLNKPLKSYSLSR [K16P], the protein stability index worked out at 2.42.

Consider LNLAMVYRYCCKLNKELKSYSLSR [K16E], for which the protein stability index is 1.9.

With LNLAMVYRYCCKLNKGLKSYSLSR [K16G], the protein stability index worked out at 3.28.

For the variant LNLAMVYRYCCKLNKNLKSYSLSR [K16N], the protein stability index stood at 2.32.

In the case of LNLAMVYRYCCKLNKSLKSYSLSR [K16S], the protein stability index is 2.33.

With LNLAMVYRYCCKLNKQLKSYSLSR [K16Q], the protein stability index was 2.35.

In the case of LNLAMVYRYCCKLNKFLKSYSLSR [K16F], the protein stability index is 1.63.

Take LNLAMVYRYCCKLNKWLKSYSLSR [K16W]: the protein stability index is 2.81.

In the case of LNLAMVYRYCCKLNKHLKSYSLSR [K16H], the protein stability index amounted to 3.33.

On to LNLAMVYRYCCKLNKDLKSYSLSR [K16D], for which the protein stability index was determined as 2.56.

As to LNLAMVYRYCCKLNKLLKSYSLSR [K16L], the protein stability index stood at 2.13.

On to LNLAMVYRYCCKLNKMLKSYSLSR [K16M], for which the protein stability index turned out to be 2.77.

For the variant LNLAMVYRYCCKLNKYLKSYSLSR [K16Y], the protein stability index came out at 2.72.

On to LNLAMVYRYCCKLNKILKSYSLSR [K16I], for which the protein stability index was found to be 1.62.

As for LNLAMVYRYCCKLNKTLKSYSLSR [K16T], the protein stability index is 3.67.

Take LNLAMVYRYCCKLNKRLKSYSLSR [K16R]: the protein stability index came to 3.33.

In the case of LNLAMVYRYCCKLNKCLKSYSLSR [K16C], the protein stability index was 4.54.

Consider LNLAMVYRYCCKLNKKLKSYSHSR [L22H], for which the protein stability index is 3.37.

With LNLAMVYRYCCKLNKKLKSYSRSR [L22R], the protein stability index was determined as 2.31.

As to LNLAMVYRYCCKLNKKLKSYSCSR [L22C], the protein stability index amounted to 2.92.

Regarding LNLAMVYRYCCKLNKKLKSYSPSR [L22P], the protein stability index is 2.24.

As for LNLAMVYRYCCKLNKKLKSYSESR [L22E], the protein stability index worked out at 1.85.

For the variant LNLAMVYRYCCKLNKKLKSYSSSR [L22S], the protein stability index was determined as 3.58.

As to LNLAMVYRYCCKLNKKLKSYSTSR [L22T], the protein stability index came out at 2.8.

Take LNLAMVYRYCCKLNKKLKSYSASR [L22A]: the protein stability index amounted to 4.08.

LNLAMVYRYCCKLNKKLKSYSKSR [L22K]: the protein stability index turned out to be 2.39.

For the variant LNLAMVYRYCCKLNKKLKSYSFSR [L22F], the protein stability index was determined as 3.36.

With LNLAMVYRYCCKLNKKLKSYSVSR [L22V], the protein stability index was determined as 1.04.

As for LNLAMVYRYCCKLNKKLKSYSDSR [L22D], the protein stability index was found to be 2.2.

LNLAMVYRYCCKLNKKLKSYSNSR [L22N]: the protein stability index worked out at 1.75.

For LNLAMVYRYCCKLNKKLKSYSISR [L22I], the protein stability index came to 3.6.

Turning to LNLAMVYRYCCKLNKKLKSYSWSR [L22W], the protein stability index came to 2.76.

In the case of LNLAMVYRYCCKLNKKLKSYSGSR [L22G], the protein stability index was found to be 3.46.

As for LNLAMVYRYCCKLNKKLKSYSYSR [L22Y], the protein stability index amounted to 4.37.

As for LNLAMVYRYCCKLNKKLKSYGLSR [S21G], the protein stability index amounted to 2.26.

With LNLAMVYRYCCKLNKKLKSYLLSR [S21L], the protein stability index is 2.25.

On to LNLAMVYRYCCKLNKKLKSYTLSR [S21T], for which the protein stability index was determined as 2.92.

For the variant LNLAMVYRYCCKLNKKLKSYCLSR [S21C], the protein stability index is 3.76.

For LNLAMVYRYCCKLNKKLKSYWLSR [S21W], the protein stability index is 2.86.

On to LNLAMVYRYCCKLNKKLKSYPLSR [S21P], for which the protein stability index amounted to 3.64.

For LNLAMVYRYCCKLNKKLKSYNLSR [S21N], the protein stability index amounted to 2.51.

For LNLAMVYRYCCKLNKKLKSYILSR [S21I], the protein stability index came to 3.96.

On to LNLAMVYRYCCKLNKKLKSYELSR [S21E], for which the protein stability index was determined as 3.12.

Take LNLAMVYRYCCKLNKKLKSYHLSR [S21H]: the protein stability index is 2.13.

Turning to LNLAMVYRYCCKLNKKLKSYALSR [S21A], the protein stability index came to 3.27.

As for LNLAMVYRYCCKLNKKLKSYDLSR [S21D], the protein stability index was determined as 2.01.

In the case of LNLAMVYRYCCKLNKKLKSYMLSR [S21M], the protein stability index was 3.42.

Consider LNLAMVYRYCCKLNKKLKSYFLSR [S21F], for which the protein stability index was determined as 2.38.

As for LNLAMVYRYCCKLNKKLKSYVLSR [S21V], the protein stability index stood at 4.29.

As to LNLAMVYRYCCKLNKKLKSYYLSR [S21Y], the protein stability index is 2.62.

Consider LNLAMVYRYCCKLNKKLKSYQLSR [S21Q], for which the protein stability index came out at 2.86.

As for LNLAMVYRYCCKLFKKLKSYSLSR [N14F], the protein stability index is 2.31.

As for LNLAMVYRYCCKLAKKLKSYSLSR [N14A], the protein stability index was determined as 3.35.

In the case of LNLAMVYRYCCKLQKKLKSYSLSR [N14Q], the protein stability index stood at 4.32.

Consider LNLAMVYRYCCKLIKKLKSYSLSR [N14I], for which the protein stability index is 2.38.

For LNLAMVYRYCCKLGKKLKSYSLSR [N14G], the protein stability index turned out to be 3.52.

In the case of LNLAMVYRYCCKLEKKLKSYSLSR [N14E], the protein stability index turned out to be 4.6.

With LNLAMVYRYCCKLHKKLKSYSLSR [N14H], the protein stability index is 3.21.

Take LNLAMVYRYCCKLTKKLKSYSLSR [N14T]: the protein stability index was found to be 3.41.

Take LNLAMVYRYCCKLCKKLKSYSLSR [N14C]: the protein stability index worked out at 3.38.

For the variant LNLAMVYRYCCKLPKKLKSYSLSR [N14P], the protein stability index was 4.59.

Turning to LNLAMVYRYCCKLSKKLKSYSLSR [N14S], the protein stability index was 2.35.

For LNLAMVYRYCCKLKKKLKSYSLSR [N14K], the protein stability index was 3.38.

In the case of LNLAMVYRYCCKLRKKLKSYSLSR [N14R], the protein stability index amounted to 3.97.

Regarding LNLAMVYRYCCKLDKKLKSYSLSR [N14D], the protein stability index worked out at 2.8.

For LNLAMVYRYCCKLMKKLKSYSLSR [N14M], the protein stability index came out at 1.94.

With LNLAMVYRYCCKLVKKLKSYSLSR [N14V], the protein stability index is 1.78.

For LNLAMVYRYCCKLYKKLKSYSLSR [N14Y], the protein stability index came to 3.35.

The next data set covers variants of B2. Described as above. Conditions: c terminus: a fixed tail appended.
As for CRCPTCRHEVIMDRHGVYGLQRNL [F1C], the protein stability index was 2.44.

For the variant ARCPTCRHEVIMDRHGVYGLQRNL [F1A], the protein stability index was 1.16.

DRCPTCRHEVIMDRHGVYGLQRNL [F1D]: the protein stability index is 2.76.
